Test [1] deals with T1, CD3 on the surface of CD3-transfected Jurkat cells.
T1 construct: whole, on cells; also called CD3 expressing Jurkat cells
Briefly: flow cytometry on CD3-transfected Jurkat cells. As for the experimental part:
(§1) Cells were detached and transferred to a 96 well microtiter plate at a concentration of 100.000-250.000 per well in 100 μl PBA (2% FCS, 0.2% NaN3 in sterile PBS).

In test [2] the target is T2, TNFR1 on the surface of cells (HT1080, HeLa, Kym-1) (human, UniProt P19438 30-455).
T2 sequence (looked up): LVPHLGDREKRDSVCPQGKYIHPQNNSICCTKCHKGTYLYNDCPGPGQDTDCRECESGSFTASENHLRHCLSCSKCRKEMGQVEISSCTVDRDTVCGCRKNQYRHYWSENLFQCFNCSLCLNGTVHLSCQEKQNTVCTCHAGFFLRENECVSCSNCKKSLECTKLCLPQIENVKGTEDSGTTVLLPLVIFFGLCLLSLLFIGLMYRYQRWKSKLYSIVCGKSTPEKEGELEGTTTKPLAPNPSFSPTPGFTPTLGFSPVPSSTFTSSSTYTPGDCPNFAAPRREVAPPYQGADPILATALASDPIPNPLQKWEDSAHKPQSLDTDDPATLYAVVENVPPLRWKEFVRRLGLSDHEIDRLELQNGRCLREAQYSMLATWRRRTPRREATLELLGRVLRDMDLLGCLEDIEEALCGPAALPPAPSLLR
Briefly: cell-based or functional assay.

The target of test [3] is T2, TNFR1 on the surface of cells (HT1080, …). Briefly: flow cytometry on TNFR1-expressing HT1080 cells. As for the experimental part: as §1
For test [4], the target named is T3, human TNFR1-Fc fusion protein (human, UniProt P19438 30-211).
T3 construct: Provided by Baliopharm AG; Coated at 1 ug/ml in the ELISA; also called huTNFR1-Fc; immobilized human TNFR1; not shown: Fc part not described
T3 sequence (looked up): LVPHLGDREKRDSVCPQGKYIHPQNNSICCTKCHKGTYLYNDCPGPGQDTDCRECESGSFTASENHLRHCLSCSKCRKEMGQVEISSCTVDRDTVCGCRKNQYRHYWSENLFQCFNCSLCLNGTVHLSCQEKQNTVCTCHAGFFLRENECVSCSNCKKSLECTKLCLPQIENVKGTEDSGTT
Briefly: ELISA, human TNFR1-Fc fusion protein. The protocol: Microtiter plates were coated with 100 μl of TNFFR1-Fc fusion protein (1 μg/ml in PBS) and incubated at 4° C. overnight.

The target in test [5] is T2, TNFR1 on the surface of cells (HT1080, …). Briefly: cell-based or functional assay. This is another data set of the same source.
The target in test [6] is T3, human TNFR1-Fc fusion protein. Briefly: QCM (Attana), real-time binding, one-to-one fit. The protocol:
(§2) FIG. 36. […] Five concentrations between 128 nM and 4 nM were used to generate the kinetic data in b) and a one-to-one binding algorithm was employed for fitting.

Test [7] shares this target. The test is described as follows: QCM (Attana), real-time binding, 128 nM to 4 nM, one-to-one fit. The protocol:
as §2

Test [8] has the same target. Briefly: ELISA, immobilized human TNFR1-Fc.
Test [9] has as its target T2, TNFR1 on the surface of cells (HT1080, …). The test is described as follows: cell-based or functional assay. This is another data set of the same source.
Test [10] addresses T3, human TNFR1-Fc fusion protein. Briefly: ELISA, human TNFR1-Fc (CHO-produced protein, Example 14). As for the experimental part:
(§3) Microtiter plates were coated with 100 μl of TNFFR1-Fc fusion protein (1 μg/ml in PBS) and incubated at 4° C. overnight. The residual binding sites were blocked with 2% MPBS (skim milk in PBS, 200 μl per well) at room temperature for 2 hours and subsequently washed twice with PBS. 100 μl of the samples diluted in 2% MPBS were incubated at room temperature for 1 hour prior to the last incubation step with 100 μl of the HRP conjugated detection antibodies in 2% MPBS. Bound protein was detected with 100 μl TMB substrate solution, the HRP-reaction was stopped by the addition of 50 μl 1 M H2SO4 and the absorption at the wavelength of 450 nm was measured using the Infinite microtiter plate reader (TECAN, Maennedorf, Switzerland). Between each incubation step and in advance of the detection, the plates were washed three times with PBST and twice with PBS.

The target is the same in test [11]. Briefly: ELISA, immobilized human TNFR1-Fc. The protocol:
as §3
The source holds these as a separate data set.

The target of test [12] is T2, TNFR1 on the surface of cells (HT1080, …). The test is described as follows: cell-based or functional assay. The source holds these as a separate data set.

T1 sequence (P07766 23-207): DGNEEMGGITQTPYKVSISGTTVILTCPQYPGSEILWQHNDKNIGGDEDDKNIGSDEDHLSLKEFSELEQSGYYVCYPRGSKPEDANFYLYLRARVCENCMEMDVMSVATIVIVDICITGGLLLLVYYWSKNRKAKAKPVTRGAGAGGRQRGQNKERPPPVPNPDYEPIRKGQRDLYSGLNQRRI

B1: 13.7N-CD3N-hFc1k (bispecific antibody)
chain 1: HVQLVQSGAEVKKPGSSVKVSCKASGYTFTDFYINWVRQAPGQGLEWIGEIVPSQGEAKYNDKFKARVTITADKSTSTAYMELSSLRSEDTAVYYCARWDFLDYWGQGTTVTVSSGGGGSGGGGSGGGGSDVQMTQSPSSLSASVGDRVTITCRSSQSLLHSNGNTYLHWYQQKPGKAPKLLIYTVSNRFSGVPSRFSGSGSGTDFTLTISSLQPEDFATYYCSQSTHVPYTFGGGTKVEIKAAADKTHTCPPCPAPPVAGPSVFLFPPKPKDTLMISRTPEVTCVVVDVSHEDPEVKFNWYVDGVEVHNAKTKPREEQYNSTYRVVSVLTVLHQDWLNGKEYKCKVSNKGLPSSIEKTISKAKGQPREPSVFPLAPSSKSTSGGTAALGCLVKDYFPSDIAVEWESGALTSGVHTFPAVLQSSGLYSLSSVVTVPSSSLGTQTYSCSVMHEALHNHYTQKSVEPKSC
chain 2: DIQMTQSPSSLSASVGDRVTITCRASQDIRNYLNWYQQKPGKAPKLLIYYTSRLHSGVPSRFSGSGSGTDFTFTISSLQPEDIATYYCQQGNTLPWTFGQGTKLEIKRGGGGSGGGGSGGGGSQVQLVQSGAEVKKPGSSVKVSCKASGGTFSGYTMNWVRQAPGQGLEWMGLINPYKGVSTYNGKFKDRVTITADKSTSTAYMELSSLRSEDTAVYYCARSGYYGDSDWYFDVWGQGTLVTVSSSGGGSGGGGSDKTHTCPPCPAPPVAGPSVFLFPPKPKDTLMISRTPEVTCVVVDVSHEDPEVKFNWYVDGVEVHNAKTKPREEQYNSTYRVVSVLTVLHQDWLNGKEYKCKVSNKGLPSSIEKTISKAKGQPREPSVFIFPPSDEQLKSGTASVVCLVNNFYPRDIAVEWEVDNALQSGNSQESVTEQDSKDSTYSLSSTLTLSKADYEKHKVYSCSVMHEALHNHYTQKSFNRGECGGGGSGGGGSGGGGSGTGGSGG
notes: also called scFv13.7-CD3-Hinge-Fc1k
For the molecule B1, the concentration for a half-maximal effect (EC50) was determined as 1.6 nM in test [1], 3.7 nM in test [3] and 3.5 nM in test [4]. Besides, the “Cytotxicity IC50” value in [2] amounted to 0.8 nM.

B2: Fv13.7x-Fc1k (Fc fusion)
chain 1: HVQLVQSGAEVKKPGSSVKVSCKASGYTFTDFYINWVRQAPGQGLEWIGEIVPSQGEAKYNDKFKARVTITADKSTSTAYMELSSLRSEDTAVYYCARWDFLDYWGQGTTVTVSSGTGGGSGPSVFLFPPKPKDTLMISRTPEVTCVVVDVSHEDPEVKFNWYVDGVEVHNAKTKPREEQYNSTYRVVSVLTVLHQDWLNGKEYKCKVSNKGLPSSIEKTISKAKGQPREPSVFIFPPSDEQLKSGTASVVCLVNNFYPRDIAVEWEVDNALQSGNSQESVTEQDSKDSTYSLSSTLTLSKADYEKHKVYSCSVMHEALHNHYTQKSFNRGEC
chain 2: DVQMTQSPSSLSASVGDRVTITCRSSQSLLHSNGNTYLHWYQQKPGKAPKLLIYTVSNRFSGVPSRFSGSGSGTDFTLTISSLQPEDFATYYCSQSTHVPYTFGGGTKVEIKGTGGGSGPSVFLFPPKPKDTLMISRTPEVTCVVVDVSHEDPEVKFNWYVDGVEVHNAKTKPREEQYNSTYRVVSVLTVLHQDWLNGKEYKCKVSNKGLPSSIEKTISKAKGQPREPSVFPLAPSSKSTSGGTAALGCLVKDYFPSDIAVEWESGALTSGVHTFPAVLQSSGLYSLSSVVTVPSSSLGTQTYSCSVMHEALHNHYTQKSVEPKSC
notes: CH2 carries A327G, A330S and P331S (EU numbering)
With B2, in [5], the “IC50, Cell death induction [nM] (Kym-1 cells, 0.01 nM TNF)” value is 16.2 nM; the “IC50, IL-6 [nM] (HeLa cells, 0.1 nM TNF)” value is 54.5 nM; the “IC50, IL-8 [nM] (HT1080 cells, 0.1 nM TNF)” value was found to be 24.2 nM. In [6], this molecule showed a koff of 0.000983 s⁻¹ and a kon of 369000 M⁻¹ s⁻¹. In [7], this molecule returned an equilibrium dissociation constant (Kd) of 2.66 nM. Further, in test [8], the concentration giving a half-maximal response (EC50) is 1.9 nM. In test [9], the “factor of increased inhibitory potential (IL-8 inhibition) compared to ATROSAB” value stood at 2.8 fold and the “fold reduced bioactivity (IL-8 inhibition) compared to Fab13.7” value is 3.7 fold. In addition, the response in test [10] was half-maximal at 0.37 nM (EC50). In test [11], the “fold reduced binding affinity compared with Fab13.7” value came out at 2.1 fold. The “IL-8 Inhibition IC50” value in test [12] is 48 nM.
